Experimental findings from patent US20090202980A1 (CROSSBETA BIOSCIENCES B V, published 2009) are described below.

B2: human islet amyloid polypeptide, full length (fl-hIAPP) (peptide)
peptide: KCNTATCATQRLANFLVHSSNNFGAILSSTNVGSNTY

Assay [1] concerns the target T1, human amyloid-β peptide Aβ(1-40) (human).
T1 construct: also called hAβ(1-40); amyloid-β(1-40)
Description: pull-down with Aβ fibrils, Western blot. The protocol:
“Control,” medium before the pull-down, “Aβ,” washed amyloid Aβ pellet, after the pull-down, “Sup,” medium after extraction with Aβ. […] MΔIAPP was coated as non-amyloid negative control (Panel E). […] The same sections were incubated with Congo red (Panels I, K, and M) to locate amyloid deposits. Panels N and O: Pull-down assay with insoluble Aβ fibrils and finger domains. […] “Control,” medium before the pull-down, “Aβ,” washed amyloid Aβ pellet, after the pull-down, “Sup,” medium after extraction with Aβ.
(§1) Conditioned medium was used for pull-down assays using Aβ and IAPP fibrils, followed by Western blot analyses.
For orientation: Immunoblotting shows a protein as a band on a membrane.

Assay [2] addresses B2. In words: pull-down with IAPP fibrils, Western blot.
Source text: as §1

Assay [3] addresses T2, Fn F4-5-GST (finger domains 4-5 of human fibronectin with C-terminal GST tag) (human; Schistosoma japonicum, UniProt P02751 182-276).
T2 construct: domain: fibronectin type I domains 4-5; Printed in places as Fn F4-S-GST (a misprint of F4-5); also called Fn F4-S-GST; fibronectin F4-5; not shown: (G)RP vector residues and thrombin cleavage site; Schistosoma japonicum glutathion-S-transferase (GST) tag
Description: ELISA, immobilized peptide.

In assay [4] the target is T3, tPA-F-EGF-GST (finger and EGF domains of human tPA with C-terminal GST tag) (human; Schistosoma japonicum, UniProt P00750 36-122).
T3 construct: domain: F-EGF; also called F-EGF-tPA; not shown: vector residues and thrombin cleavage site; Schistosoma japonicum glutathion-S-transferase (GST) tag
T3 sequence (looked up): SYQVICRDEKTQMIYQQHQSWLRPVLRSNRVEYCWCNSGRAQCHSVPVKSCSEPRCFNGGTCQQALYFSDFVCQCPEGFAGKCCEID
In words: ELISA, 25 µg/ml peptide immobilized, excess εACA, anti-GST detection.

For assay [5], the target named is T4, recombinant tissue-type plasminogen activator (tPA) (human, UniProt P00750 36-562).
T4 construct: Commercial full-length recombinant tPA; also called Alteplase; Actilyse
Description: ELISA on Exiqon plates.

In assay [6] the target is T4, recombinant tissue-type plasminogen …. Description: ELISA, 25 µg/ml peptide immobilized on Exiqon plates. (In general: An ELISA detects its analyte on a solid surface through an enzyme-linked reagent.)
Assay [7] concerns the target T5, tPA K1-GST (kringle 1 domain of human tPA with C-terminal GST tag) (human; Schistosoma japonicum, UniProt P00750 123-210).
T5 construct: domain: K1; not shown: vector residues and thrombin cleavage site; Schistosoma japonicum glutathion-S-transferase (GST) tag
T5 sequence (looked up): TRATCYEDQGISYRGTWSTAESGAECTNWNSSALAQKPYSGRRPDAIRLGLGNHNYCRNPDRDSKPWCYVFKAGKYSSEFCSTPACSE
Description: pull-down with IAPP fibrils, Western blot.
Source text: as §1

For assay [8], the target named is T3, tPA-F-EGF-GST (finger and EGF domains …). In words: ELISA, 25 µg/ml peptide immobilized, excess εACA.
Assay [9] has as its target T6, human factor XII (Hageman factor) (human, UniProt P00748 20-615).
T6 construct: also called FXII; fXII
T6 sequence (looked up): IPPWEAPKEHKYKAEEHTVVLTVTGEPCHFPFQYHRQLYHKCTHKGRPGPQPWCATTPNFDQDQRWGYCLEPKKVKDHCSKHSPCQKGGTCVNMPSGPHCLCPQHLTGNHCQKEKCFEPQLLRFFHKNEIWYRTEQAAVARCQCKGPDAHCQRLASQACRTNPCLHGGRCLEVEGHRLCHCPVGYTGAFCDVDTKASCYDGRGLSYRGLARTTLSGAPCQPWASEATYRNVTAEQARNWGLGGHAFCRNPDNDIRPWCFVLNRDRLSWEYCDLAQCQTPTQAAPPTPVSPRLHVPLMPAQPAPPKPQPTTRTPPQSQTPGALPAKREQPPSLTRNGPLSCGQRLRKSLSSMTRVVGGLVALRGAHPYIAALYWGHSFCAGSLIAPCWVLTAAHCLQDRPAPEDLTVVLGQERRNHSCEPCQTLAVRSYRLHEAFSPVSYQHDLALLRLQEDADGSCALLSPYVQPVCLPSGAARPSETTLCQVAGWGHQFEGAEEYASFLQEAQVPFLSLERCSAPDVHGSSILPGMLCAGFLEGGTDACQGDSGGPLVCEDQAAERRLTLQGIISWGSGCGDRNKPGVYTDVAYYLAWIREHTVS
Description: ELISA, coated peptide, FXII overlaid. An excerpt: Ten μg of the peptides that contain cross-β structure, as well as the negative control peptide mΔIAPP and phosphate-buffered saline (PBS), were spotted in duplicate.
Wells were coated in triplicate. […] Ten μg of the peptides that contain cross-β structure, as well as the negative control peptide MΔIAPP and phosphate-buffered saline (PBS), were spotted in duplicate onto methanol-activated nitrocellulose.

In assay [10] the target is T4, recombinant tissue-type plasminogen …. In words: ELISA, 25 µg/ml peptide immobilized.
Assay [11] addresses T1, human amyloid-β peptide Aβ(1-40). Description: ELISA, Aβ coated, plasminogen overlaid.

T1 sequence (peptide, as listed by the source): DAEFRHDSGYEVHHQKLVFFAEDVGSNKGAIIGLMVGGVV
T2 sequence (P02751 182-276, tags left off): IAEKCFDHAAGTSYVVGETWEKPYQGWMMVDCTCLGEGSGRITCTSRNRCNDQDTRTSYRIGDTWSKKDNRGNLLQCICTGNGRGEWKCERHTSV

B1: tPA EGF-GST (EGF domain of human tPA with C-terminal GST tag) (other, UniProt P00750 86-122, looked up)
chain: CSEPRCFNGGTCQQALYFSDFVCQCPEGFAGKCCEID
notes: domain: EGF; not shown: vector residues and thrombin cleavage site; Schistosoma japonicum glutathion-S-transferase (GST) tag
Consider B1, for which the binding result in assay [1] and in assay [2] was “no binding” throughout.

One may read the Kd as the constant that tells how readily two partners part at equilibrium. Take B2: the results for the binding result in assay [3] and in [7] were “binds” and “no binding”, respectively. Moreover, the Kd stood at 13 nM in [4], 6 nM in assay [5] and 2 nM in assay [6].

B3: mouse non-amyloidogenic IAPP(20-29) core (ΔmIAPP) (peptide)
peptide: SNNLGPVLPP
notes: Non-amyloid negative control peptide; also called mΔIAPP; MΔIAPP
B3: the binding result in [8], in assay [9] and in [10] was “no binding” each time.

B4: plasminogen (enzyme, UniProt P00747 20-810, looked up)
chain: EPLDDYVNTQGASLFSVTKKQLGAGSIEECAAKCEEDEEFTCRAFQYHSKEQQCVIMAENRKSSIIIRMRDVVLFEKKVYLSECKTGNGKNYRGTMSKTKNGITCQKWSSTSPHRPRFSPATHPSEGLEENYCRNPDNDPQGPWCYTTDPEKRYDYCDILECEEECMHCSGENYDGKISKTMSGLECQAWDSQSPHAHGYIPSKFPNKNLKKNYCRNPDRELRPWCFTTDPNKRWELCDIPRCTTPPPSSGPTYQCLKGTGENYRGNVAVTVSGHTCQHWSAQTPHTHNRTPENFPCKNLDENYCRNPDGKRAPWCHTTNSQVRWEYCKIPSCDSSPVSTEQLAPTAPPELTPVVQDCYHGDGQSYRGTSSTTTTGKKCQSWSSMTPHRHQKTPENYPNAGLTMNYCRNPDADKGPWCFTTDPSVRWEYCNLKKCSGTEASVVAPPPVVLLPDVETPSEEDCMFGNGKGYRGKRATTVTGTPCQDWAAQEPHRHSIFTPETNPRAGLEKNYCRNPDGDVGGPWCYTTNPRKLYDYCDVPQCAAPSFDCGKPQVEPKKCPGRVVGGCVAHPHSWPWQVSLRTRFGMHFCGGTLISPEWVLTAAHCLEKSPRPSSYKVILGAHQEVNLEPHVQEIEVSRLFLEPTRKDIALLKLSSPAVITDKVIPACLPSPNYVVADRTECFITGWGETQGTFGAGLLKEAQLPVIENKVCNRYEFLNGRVQSTELCAGHLAGGTDSCQGDSGGPLVCFEKDKYILQGVTSWGLGCARPNKPGVYVRVSRFVTWIEGVMRNN
notes: also called Plg
As for B4, the binding result in [11] is “no binding”.
